Test results from patent publication US20140087995A1 (published 2014).
Numbered stars: 1 amine (or outer) side, 2 acyl side, 3 side chain; on linkers, the order of the positions; unused ones are H or OH. Bridge positions count the residues as written; N and C are the ends. Side chains are listed from the residue outwards. Ends that are not written are not given here. * marks the point of attachment. C20 diacid = O=C(O)CCCCCCCCCCCCCCCCCCC(=O)*; γGlu = O=C(O)[C@H](CCC(=O)[*:2])N[*:1]

T1: human amylin receptor (Amylin 3(a) receptor: human calcitonin receptor co-expressed with RAMP-3) (human, UniProt P30988 25-474; O60896 24-148, limits assumed)
T1 construct: whole, on cells; Used as cell membranes prepared from the Amylin 3(a)/CRE-luc BHK cells (Assay V); the complex is called the human amylin receptor; also called hAmylin-R; hAmylinR
T1 sequence (looked up) 1: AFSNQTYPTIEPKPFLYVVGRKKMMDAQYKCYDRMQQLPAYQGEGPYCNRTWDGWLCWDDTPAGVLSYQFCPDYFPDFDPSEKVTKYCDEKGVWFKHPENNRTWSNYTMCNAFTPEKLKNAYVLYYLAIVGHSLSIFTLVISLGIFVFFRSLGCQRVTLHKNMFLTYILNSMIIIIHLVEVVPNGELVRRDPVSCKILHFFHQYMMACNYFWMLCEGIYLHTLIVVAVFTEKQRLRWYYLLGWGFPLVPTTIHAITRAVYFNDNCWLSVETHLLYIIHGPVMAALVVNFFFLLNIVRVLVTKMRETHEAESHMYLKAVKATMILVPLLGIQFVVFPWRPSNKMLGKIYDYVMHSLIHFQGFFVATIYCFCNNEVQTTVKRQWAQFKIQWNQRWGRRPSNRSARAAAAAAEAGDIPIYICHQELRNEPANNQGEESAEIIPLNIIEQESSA
T1 sequence (looked up) 2: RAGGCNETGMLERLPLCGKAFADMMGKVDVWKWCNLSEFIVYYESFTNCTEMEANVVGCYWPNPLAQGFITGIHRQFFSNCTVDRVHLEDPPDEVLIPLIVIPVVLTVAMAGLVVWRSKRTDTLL

B1: N^ε1-[(4S)-4-carboxy-4-(19-carboxynonadecanoylamino)butanoyl]-[Glu14,Arg17,Pro21,Pro27,Arg34,Glu35]-h-amylin (peptide)
peptide: K([γGlu-C20 diacid])CNTATCATQRLAEFLRHSSPNFGAIPSSTNVGRETY-NH2
modifications: disulfide 2-7; N-terminus assumed
SMILES: CC[C@H](C)[C@H](NC(=O)[C@H](C)NC(=O)CNC(=O)[C@H](Cc1ccccc1)NC(=O)[C@H](CC(N)=O)NC(=O)[C@@H]1CCCN1C(=O)[C@H](CO)NC(=O)[C@H](CO)NC(=O)[C@H](Cc1c[nH]cn1)NC(=O)[C@H](CCCNC(=N)N)NC(=O)[C@H](CC(C)C)NC(=O)[C@H](Cc1ccccc1)NC(=O)[C@H](CCC(=O)O)NC(=O)[C@H](C)NC(=O)[C@H](CC(C)C)NC(=O)[C@H](CCCNC(=N)N)NC(=O)[C@H](CCC(N)=O)NC(=O)[C@@H](NC(=O)[C@H](C)NC(=O)[C@@H]1CSSC[C@H](NC(=O)[C@@H](N)CCCCNC(=O)CC[C@H](NC(=O)CCCCCCCCCCCCCCCCCCC(=O)O)C(=O)O)C(=O)N[C@@H](CC(N)=O)C(=O)N[C@@H]([C@@H](C)O)C(=O)N[C@@H](C)C(=O)N[C@@H]([C@@H](C)O)C(=O)N1)[C@@H](C)O)C(=O)N1CCC[C@H]1C(=O)N[C@@H](CO)C(=O)N[C@@H](CO)C(=O)N[C@H](C(=O)N[C@@H](CC(N)=O)C(=O)N[C@H](C(=O)NCC(=O)N[C@@H](CCCNC(=N)N)C(=O)N[C@@H](CCC(=O)O)C(=O)N[C@H](C(=O)N[C@@H](Cc1ccc(O)cc1)C(N)=O)[C@@H](C)O)C(C)C)[C@@H](C)O
notes: modifications are with respect to human amylin
B2: N^ε1-[(4S)-4-carboxy-4-(19-carboxynonadecanoylamino)butanoyl]-[Glu14,Arg17,Pro21,Pro27,His34,Glu35]-h-amylin (peptide)
peptide: K([γGlu-C20 diacid])CNTATCATQRLAEFLRHSSPNFGAIPSSTNVGHETY-NH2
modifications: disulfide 2-7; N-terminus assumed
SMILES: CC[C@H](C)[C@H](NC(=O)[C@H](C)NC(=O)CNC(=O)[C@H](Cc1ccccc1)NC(=O)[C@H](CC(N)=O)NC(=O)[C@@H]1CCCN1C(=O)[C@H](CO)NC(=O)[C@H](CO)NC(=O)[C@H](Cc1c[nH]cn1)NC(=O)[C@H](CCCNC(=N)N)NC(=O)[C@H](CC(C)C)NC(=O)[C@H](Cc1ccccc1)NC(=O)[C@H](CCC(=O)O)NC(=O)[C@H](C)NC(=O)[C@H](CC(C)C)NC(=O)[C@H](CCCNC(=N)N)NC(=O)[C@H](CCC(N)=O)NC(=O)[C@@H](NC(=O)[C@H](C)NC(=O)[C@@H]1CSSC[C@H](NC(=O)[C@@H](N)CCCCNC(=O)CC[C@H](NC(=O)CCCCCCCCCCCCCCCCCCC(=O)O)C(=O)O)C(=O)N[C@@H](CC(N)=O)C(=O)N[C@@H]([C@@H](C)O)C(=O)N[C@@H](C)C(=O)N[C@@H]([C@@H](C)O)C(=O)N1)[C@@H](C)O)C(=O)N1CCC[C@H]1C(=O)N[C@@H](CO)C(=O)N[C@@H](CO)C(=O)N[C@H](C(=O)N[C@@H](CC(N)=O)C(=O)N[C@H](C(=O)NCC(=O)N[C@@H](Cc1c[nH]cn1)C(=O)N[C@@H](CCC(=O)O)C(=O)N[C@H](C(=O)N[C@@H](Cc1ccc(O)cc1)C(N)=O)[C@@H](C)O)C(C)C)[C@@H](C)O
notes: modifications are with respect to human amylin; also called compound 107

Molecular target: T1, human amylin receptor (Amylin 3(a) …)
Test: SPA competition binding, displacement of 125I-rat amylin from membranes of BHK cells with human calcitonin receptor + RAMP-3 (Assay V)
Description: The binding assay was performed using scintillation proximity assay (SPA) beads (RPNQ0001) from PerkinElmer and cell membranes from the Amylin 3(a)/CRE-luc cells (as described in Assay (II)) were used. Membranes were prepared in the following way; the cells were rinsed with PBS and incubated with Versene for approximately 5 min before harvesting. The cells were flushed with PBS and the cell-suspension was centrifuged for 5 min at 1000 rpm. Cells were homogenized (ultrathurrax) in a buffer containing 20 mM Na-HEPES and 10 mM EDTA (pH 7.4) and centrifuged at 20.000 rpm for 15 min. The resulting pellet was resuspended, homogenized and centrifuged (20.000 rpm, 15 min) in a buffer containing 20 mM Na-HEPES and 0.1 mM EDTA (pH 7.4, buffer 2). The resulting pellet was resuspended in buffer 2 and protein concentration was measured (BCA protein Assay, Pierce). The homogenate was kept cold during the whole procedure. The membranes were kept at −80° C. until use. The assay was performed in a 384 well Optiplate (PerkinElmer) in a total volume of 40 ul. Membranes were mixed with SPA beads. Final concentration of membranes 35 ng/μL final and SPA beads was 0.05 mg/well. Test-compounds were dissolved in DMSO and further diluted in assay buffer (50 mM Hepes, pH 7.4, 1 mM CaCl2, 5 mM MgCl₂, 0.1% OA and 0.02% Tween20). […] The final mixture was incubated with shaking at 400 rpm for 120 min at 25° C. prior to centrifugation (1500 rpm, 10 min). Samples were analyzed on TopCounter™ (Packard). The IC₅₀ was calculated using (one site binding competition analysis) GraphPad Prism5 as a measure of receptor affinity.

IC50	Binder
232 pM	B1
387 pM	B2
